Literature values in PMC10480133.

Target: GRGDSPK peptide

## Integrin αvβ3 (from UniProt P06756)
  Kd: 12.2 nM
